B1: Lysozyme C, P61626 (parent)
chain: MKALIVLGLVLLSVTVQGKVFERCELARTLKRLGMDGYRGISLANWMCLAKWESGYNTRATNYNAGDRSTDYGIFQINSRYWCNDGKTPGAVNACHLSCSALLQDNIADAVACAKRVVRDPQGIRAWVAWRNRCQNRDVRQYVQGCGV

Variants of: B1
Conditions: Homo sapiens, pH 2.7, Thermal, DSC, glycine 0.05 M, reversible: yes, structure 1LZ1, whole UniProt chain shown

| Variant | ddG of mutation (higher = less stable) (64.9 °C) | heat capacity change of unfolding (64.9 °C) | Tm | change of melting temperature, mutant - wild type (higher = more stable) | heat capacity change of unfolding | unfolding enthalpy (calorimetric) | unfolding enthalpy (van 't Hoff) |
| --- | --- | --- | --- | --- | --- | --- | --- |
| MKALIVLGLVLLSVTVQGKVFERCELARTLKRLGMDGYRGISLANWMCLAKWESGYNTRATNYNAGDRSTDYGIFQINSRYWCNDGKTPGAVNACHLSCSALLQDNIADAVACAKRVVRDPQGIRAWVAWRNRCQNRDARQYVQGCGV | 6.02 kJ/mol | 1.53 kcal/mol/K | 60.4 °C | -4.5 °C | 1.53 kcal/mol/K | 460 kJ/mol | 470 kJ/mol |
| MKALIVLGLVLLSVTVQGKVFERCELARTLKRLGMDGYRGISLANWMCLAKWESGYNTRATNYNAGDRSTDYGIFQINSRYWCNDGKTPGAVNACHLSCSALLQDNIADAVACAKRAVRDPQGIRAWVAWRNRCQNRDVRQYVQGCGV | 4.1 kJ/mol | 1.58 kcal/mol/K | 61.9 °C | -3 °C | 1.58 kcal/mol/K | 464 kJ/mol | 488 kJ/mol |
| MKALIVLGLVLLSVTVQGKVFERCELARTLKRLGMDGYRGISLANWMCLAKWESGYNTRATNYNAGDRSTDYGIFQINSRYWCNDGKTPGAVNACHLSCSALLQDNIADAAACAKRVVRDPQGIRAWVAWRNRCQNRDVRQYVQGCGV |  |  | 62.6 °C | -2.3 °C | 1.53 kcal/mol/K | 467 kJ/mol | 501 kJ/mol |
| MKALIVLGLVLLSVTVQGKVFERCELARTLKRLGMDGYRGISLANWMCLAKWESGYNTRATNYNAGDRSTDYGIFQINSRYWCNDGKTPGAANACHLSCSALLQDNIADAVACAKRVVRDPQGIRAWVAWRNRCQNRDVRQYVQGCGV | 1.51 kJ/mol | 1.48 kcal/mol/K | 63.8 °C | -1.1 °C | 1.48 kcal/mol/K | 477 kJ/mol | 501 kJ/mol |
| MKALIVLGLVLLSVTVQGKVFERCELARTLKRLGMDGYRGISLANWMCLAKWESGYNTRATNYNAGDRSTDYGIFQINSRYWCNDGKTPGAVNACHLSCSALLQDNIADAVACAKRVVRDPQGIRAWAAWRNRCQNRDVRQYVQGCGV | -2.22 kJ/mol | 1.24 kcal/mol/K | 66.4 °C | 1.5 °C | 1.24 kcal/mol/K | 485 kJ/mol | 510 kJ/mol |
| MKALIVLGLVLLSVTVQGKAFERCELARTLKRLGMDGYRGISLANWMCLAKWESGYNTRATNYNAGDRSTDYGIFQINSRYWCNDGKTPGAVNACHLSCSALLQDNIADAVACAKRVVRDPQGIRAWVAWRNRCQNRDVRQYVQGCGV | 6.32 kJ/mol | 1.56 kcal/mol/K | 60.3 °C | -4.6 °C | 1.56 kcal/mol/K | 468 kJ/mol | 478 kJ/mol |
| MKALIVLGLVLLSVTVQGKVFERCELARTLKRLGMDGYRGISLANWMCLAKWESGYNTRATNYNAGDRSTDYGIFQINSRYWCNDGKTPGAVNACHLSCSALLQDNIADAVACAKRVVRDPQGIRAWVAWRNRCQNRDVRQYAQGCGV | 5.52 kJ/mol | 1.29 kcal/mol/K | 60.9 °C | -4 °C | 1.29 kcal/mol/K | 472 kJ/mol | 487 kJ/mol |
| MKALIVLGLVLLSVTVQGKVFERCELARTLKRLGMDGYRGISLANWMCLAKWESGYNTRATNYNAGDRSTDYGIFQINSRYWCNDGKTPGAVNACHLSCSALLQDNIADAVACAKRVARDPQGIRAWVAWRNRCQNRDVRQYVQGCGV | 1.09 kJ/mol | 1 kcal/mol/K | 64.1 °C | -0.8 °C | 1 kcal/mol/K | 461 kJ/mol | 502 kJ/mol |
| MKALIVLGLVLLSVTVQGKVFERCELARTLKRLGMDGYRGISLANWMCLAKWESGYNTRATNYNAGDRSTDYGIFQINSRYWCNDGKTPGAVNACHLSCSALLQDNIADAVACAKRVVRDPQGIRAWVAWRNRCQNRDVRQYVQGCGA | 3.51 kJ/mol | 1.51 kcal/mol/K | 62.3 °C | -2.6 °C | 1.51 kcal/mol/K | 464 kJ/mol | 500 kJ/mol |

Source: FireProtDB (doi:10.1021/bi9621829)
